Values after ≈ are worked out from the molar mass of the structure shown. “Also recorded” adds a separate entry of the source. Marks after values point to notes of the source that are not given here.
Key:
E. coli D21f2tolC [1] = experiment: Broth microdilution MIC, wild-type rpoC and rpoB; type: cell-based, Escherichia coli; conditions: LB broth, 16 h at 37° C., lowest concentration inhibiting growth by 95%
Experimental: (§1) Quantitation of Resistance to Sal. Resistance to Sal was quantified by performing broth microdilution assays. Single colonies were inoculated into 3 ml LB broth, and incubated 3-6 h at 37° C. with shaking. Diluted aliquots (2×10^4 cells in 98 μl LB broth; concentrations determined using OD600=1 for 10^9 cells) were dispensed into wells of a 96-well plate, were supplemented with 2 μl of a 2-fold dilution series of Sal in methanol (final concentrations of […], 0.390, 0.195, 0.0975, 0.0488, 0.0244, 0.0122, and 0.00609 μg/ml) or 2 μl of a solvent blank, and were incubated 16 h at 37° C. with shaking. The minimum inhibitory concentration (MIC) was defined as the lowest tested concentration of Sal that inhibited bacterial growth by 95%.
(§2) Quantitation of Cross-Resistance to Rifampin and CBR703. Cross-resistance levels were determined analogously to resistance levels, using 0.12-0.78 μg/ml of rifampin (Sigma, Inc.) and 0.39-25 μg/ml of CBR703 (Maybridge, Inc.).

[2] = tested on: Sal-resistant mutants of E. coli D21f2tolC (rpoC / rpoB substitutions); experiment: Broth microdilution resistance / cross-resistance levels of spontaneous Sal-resistant mutants; type: cell-based, Escherichia coli; conditions: for cross-resistance of Sal-resistant mutants (in words): broth microdilution (Table 4); for cross-resistance level (MIC/MICwild-type): values <1 = hypersensitivity
Experimental: (§3) Isolation of Sal-Resistant Mutants: Spontaneous Sal-Resistant Mutants. E. coli D21f2tolC (6) was cultured to saturation in 5 ml LB broth (7) at 37° C., cultures were centrifuged, and cell pellets (˜3×10^9 cells) were re-suspended in 50 μl LB broth and plated on LB agar (7) containing 1.2 μg/ml Sal (a concentration four times the minimal concentration required to prevent growth of wild-type cells under these conditions), and incubated 24-48 h at 37° C. Sal-resistant mutants were identified by the ability to form colonies on this medium and were confirmed by re-streaking on the same medium.
as §1, §2

E. coli D21f2tolC [3] = experiment: Spontaneous resistance frequency by plating on LB agar containing inhibitor; type: cell-based, Escherichia coli; conditions: LB agar, each compound at 4×MIC, colonies counted after 24 h at 37° C.
Description: Sal-Resistant Mutants Map to RNAP-Subunit Genes. To determine whether Sal kills bacteria by inhibiting RNAP, spontaneous Sal-resistant mutants were isolated, and genes for RNAP subunits in Sal-resistant mutants were PCR-amplified and sequenced (FIG. 3A). Spontaneous Sal-resistant mutants were isolated by plating high-density cultures of E. coli D21f2tolC (˜3×10^9 cells per plate) on agar containing Sal and identifying rare resistant colonies (FIG. 3B). For each Sal-resistant mutant, genomic DNA was prepared, and the genes for the largest RNAP subunit and the second-largest RNAP subunit—rpoC encoding RNAP β′ subunit and rpoB encoding RNAP β subunit were PCR-amplified and sequenced (FIG. 3C).
Co-Administration of Sal and Rifampin Reduces Spontaneous Resistance to Undetectable Levels.
Co-Administration of Sal and CBR703 Reduces Spontaneous Resistance to Undetectable Levels.
as §3

[4] = target: E. coli RNAP, β subunit 665 Ala→Glu (Escherichia coli) (UniProt P0A8T7); experiment: cell-based or functional assay
[5] = target: E. coli RNAP, β subunit 516 Asp→Val (Escherichia coli) (UniProt P0A8T7); experiment: cell-based or functional assay
[6] = target: E. coli RNAP, β subunit 677 Asn→Lys (Escherichia coli) (UniProt P0A8T7); experiment: cell-based or functional assay
[7] = target: E. coli RNAP, β′ subunit 738 Arg→His (Escherichia coli) (UniProt P0A8T7); experiment: cell-based or functional assay
[8] = target: E. coli RNAP, β′ subunit 748 Ala→Glu (Escherichia coli) (UniProt P0A8T7); experiment: cell-based or functional assay
[9] = target: E. coli RNAP, β′ subunit 763 Phe→Cys (Escherichia coli) (UniProt P0A8T7); experiment: cell-based or functional assay
[10] = target: E. coli RNAP, β′ subunit 782 Gly→Cys (Escherichia coli) (UniProt P0A8T7); experiment: cell-based or functional assay
[11] = target: E. coli RNAP, β subunit 526 His→Asp (Escherichia coli) (UniProt P0A8T7); experiment: cell-based or functional assay
[12] = target: E. coli RNAP, β′ subunit 690 Asn→Asp (Escherichia coli) (UniProt P0A8T7); experiment: cell-based or functional assay
[13] = target: E. coli RNAP, β′ subunit 780 Arg→Cys (Escherichia coli) (UniProt P0A8T7); experiment: cell-based or functional assay
[14] = target: E. coli RNAP, β subunit 677 Asn→His (Escherichia coli) (UniProt P0A8T7); experiment: cell-based or functional assay
[15] = target: E. coli RNAP, β′ subunit 758 Pro→Ser (Escherichia coli) (UniProt P0A8T7); experiment: cell-based or functional assay
[16] = target: E. coli RNAP, β′ subunit 783 Leu→Arg (Escherichia coli) (UniProt P0A8T7); experiment: cell-based or functional assay
[17] = target: E. coli RNAP, β′ subunit 779 Ala→Val (Escherichia coli) (UniProt P0A8T7); experiment: cell-based or functional assay
[18] = target: E. coli RNAP, β subunit 531 Ser→Leu (Escherichia coli) (UniProt P0A8T7); experiment: cell-based or functional assay
[19] = target: E. coli RNAP, β′ subunit 779 Ala→Thr (Escherichia coli) (UniProt P0A8T7); experiment: cell-based or functional assay
[20] = target: E. coli RNAP, β′ subunit 738 Arg→Pro (Escherichia coli) (UniProt P0A8T7); experiment: cell-based or functional assay
[21] = target: Escherichia coli RNA polymerase with wild-type rpoC and wild-type rpoB, in E. coli D21f2tolC (Escherichia coli) (UniProt P0A8T7); experiment: cell-based or functional assay
[22] = target: E. coli RNAP, β′ subunit 758 Pro→Thr (Escherichia coli) (UniProt P0A8T7); experiment: cell-based or functional assay
[23] = target: E. coli RNAP, β′ subunit 738 Arg→Ser (Escherichia coli) (UniProt P0A8T7); experiment: cell-based or functional assay
[24] = target: E. coli RNAP, β subunit 526 His→Tyr (Escherichia coli) (UniProt P0A8T7); experiment: cell-based or functional assay
[25] = target: E. coli RNAP, β′ subunit 697 Met→Val (Escherichia coli) (UniProt P0A8T7); experiment: cell-based or functional assay
[26] = target: E. coli RNAP, β′ subunit 738 Arg→Cys (Escherichia coli) (UniProt P0A8T7); experiment: cell-based or functional assay
[27] = target: E. coli RNAP, β subunit 561 Ile→Ser (Escherichia coli) (UniProt P0A8T7); experiment: cell-based or functional assay
[28] = target: E. coli RNAP, β subunit 569 Ile→Ser (Escherichia coli) (UniProt P0A8T7); experiment: cell-based or functional assay
[29] = target: E. coli RNAP, β subunit 675 Asp→Ala (Escherichia coli) (UniProt P0A8T7); experiment: cell-based or functional assay
[30] = target: E. coli RNAP, β subunit 680 Leu→Met (Escherichia coli) (UniProt P0A8T7); experiment: cell-based or functional assay
[31] = target: E. coli RNAP, β′ subunit 775 Ser→Ala (Escherichia coli) (UniProt P0A8T7); experiment: cell-based or functional assay

Molecule: CO[C@H]1/C=C/O[C@@]2(C)Oc3c(C)c(O)c4c(O)c(c(/C=N/N5CCN(C)CC5)c(O)c4c3C2=O)NC(=O)/C(C)=C\C=C\[C@H](C)[C@H](O)[C@@H](C)[C@@H](O)[C@@H](C)[C@H](OC(C)=O)[C@@H]1C [rifampin]
- MIC (E. coli D21f2tolC [1]; Escherichia coli, D21F2TOLC): 0.098 µg/mL (≈ 0.119 µM)
- cross-resistance of Sal-resistant mutants (in words) [2]: not cross-resistant; also recorded: no cross-resistance
- hypersensitivity of Sal-resistant mutants ([2]; {}): 2 fold
- spontaneous resistance frequency (E. coli D21f2tolC [3]): 1×10^−8
- spontaneous resistance frequency (E. coli D21f2tolC [3]; listed as Rif): 1 × 10^−8

Molecule: salinamide A (peptide)
- resistance level (MIC/MICwild-type), plasmid-borne rpoB (MIC/MICwild-type) [4]: 8
- cross-resistance level (MIC/MICwild-type) to Sal (MIC/MICwild-type) [5]: 1
- resistance level (MIC/MICwild-type) (MIC/MICwild-type) [6]: > 16
- resistance level (MIC/MICwild-type) (MIC/MICwild-type) [7]: > 16
- resistance level (MIC/MICwild-type) (MIC/MICwild-type) [8]: 16
- resistance level (MIC/MICwild-type) (MIC/MICwild-type) [9]: 16
- resistance level (MIC/MICwild-type), plasmid-borne rpoC (MIC/MICwild-type) [10]: 8
- cross-resistance level (MIC/MICwild-type) to Sal (MIC/MICwild-type) [11]: 1
- resistance level (MIC/MICwild-type) (MIC/MICwild-type) [12]: 16
- resistance level (MIC/MICwild-type) (MIC/MICwild-type) [13]: > 16
- resistance level (MIC/MICwild-type), plasmid-borne rpoC (MIC/MICwild-type) [13]: 8
- resistance level (MIC/MICwild-type) (MIC/MICwild-type) [14]: > 16
- resistance level (MIC/MICwild-type) (MIC/MICwild-type) [15]: 16
- resistance level (MIC/MICwild-type) (MIC/MICwild-type) [16]: > 16
- resistance level (MIC/MICwild-type) (MIC/MICwild-type) [17]: > 16
- cross-resistance level (MIC/MICwild-type) to Sal (MIC/MICwild-type) [18]: 1
- resistance level (MIC/MICwild-type) (MIC/MICwild-type) [19]: > 16
- resistance level (MIC/MICwild-type) (MIC/MICwild-type) [20]: > 16
- MIC (broth microdilution, D21f2tolC pRL663 and D21f2tolC pRL706 derivatives) [21]: 0.098 µg/ml
- MIC (broth microdilution, E. coli D21f2tolC) [21]: 0.024 µg/mL
- resistance level (MIC/MICwild-type), plasmid-borne rpoC (MIC/MICwild-type) [22]: 4
- resistance level (MIC/MICwild-type) (MIC/MICwild-type) [23]: > 16
- cross-resistance level (MIC/MICwild-type) to Sal (MIC/MICwild-type) [24]: 1
- resistance level (MIC/MICwild-type) (MIC/MICwild-type) [25]: > 16
- resistance level (MIC/MICwild-type) (MIC/MICwild-type) [26]: > 16
- resistance level (MIC/MICwild-type), plasmid-borne rpoB (MIC/MICwild-type) [27]: 2
- resistance level (MIC/MICwild-type) (MIC/MICwild-type) [28]: > 16
- resistance level (MIC/MICwild-type) (MIC/MICwild-type) [29]: > 16
- resistance level (MIC/MICwild-type), plasmid-borne rpoB (MIC/MICwild-type) [30]: 4
- resistance level (MIC/MICwild-type) (MIC/MICwild-type) [31]: 8

Molecule: ONC(=Nc1ccccc1)c1cccc(C(F)(F)F)c1 [CBR703]
- MIC with wild-type rpoC and wild-type rpoB (E. coli D21f2tolC [1]): 6.25 µg/mL
- cross-resistance level (MIC/MICwild-type) ([2]; Sal-resistant mutant rpoB (RNAP β subunit) 569 Ile→Ser): 1
- cross-resistance level (MIC/MICwild-type) ([2]; Sal-resistant mutant rpoB (RNAP β subunit) 675 Asp→Ala): ≦0.25
- cross-resistance level (MIC/MICwild-type) ([2]; Sal-resistant mutant rpoB (RNAP β subunit) 677 Asn→His): 1
- cross-resistance level (MIC/MICwild-type) ([2]; Sal-resistant mutant rpoB (RNAP β subunit) 677 Asn→Lys): ≦0.25
- cross-resistance level (MIC/MICwild-type) ([2]; Sal-resistant mutant rpoC (RNAP β′ subunit) 690 Asn→Asp): ≦0.25^b
- cross-resistance level (MIC/MICwild-type) ([2]; Sal-resistant mutant rpoC (RNAP β′ subunit) 697 Met→Val): 0.5
- cross-resistance level (MIC/MICwild-type) ([2]; Sal-resistant mutant rpoC (RNAP β′ subunit) 738 Arg→Cys): ≦0.25
- cross-resistance level (MIC/MICwild-type) ([2]; Sal-resistant mutant rpoC (RNAP β′ subunit) 738 Arg→Pro): ≦0.25
- cross-resistance level (MIC/MICwild-type) ([2]; Sal-resistant mutant rpoC (RNAP β′ subunit) 738 Arg→Ser): 1
- cross-resistance level (MIC/MICwild-type) ([2]; Sal-resistant mutant rpoC (RNAP β′ subunit) 748 Ala→Glu): ≦0.25
- cross-resistance level (MIC/MICwild-type) ([2]; Sal-resistant mutant rpoC (RNAP β′ subunit) 763 Phe→Cys): ≦0.25
- cross-resistance level (MIC/MICwild-type) ([2]; Sal-resistant mutant rpoC (RNAP β′ subunit) 779 Ala→Thr): 1
- cross-resistance level (MIC/MICwild-type) ([2]; Sal-resistant mutant rpoC (RNAP β′ subunit) 779 Ala→Val): ≦0.25
- cross-resistance level (MIC/MICwild-type) ([2]; Sal-resistant mutant rpoC (RNAP β′ subunit) 780 Arg→Cys): 0.5
- cross-resistance of Sal-resistant mutants (in words) [2]: no cross-resistance
- spontaneous resistance frequency (E. coli D21f2tolC [3]): 2×10^−10
